Earlier results in paper PMC9254164.

Target: phospho-ubiquitin (Homo sapiens) (UniProt P0CG47)

Parkin, sequence (O60260 whole entry): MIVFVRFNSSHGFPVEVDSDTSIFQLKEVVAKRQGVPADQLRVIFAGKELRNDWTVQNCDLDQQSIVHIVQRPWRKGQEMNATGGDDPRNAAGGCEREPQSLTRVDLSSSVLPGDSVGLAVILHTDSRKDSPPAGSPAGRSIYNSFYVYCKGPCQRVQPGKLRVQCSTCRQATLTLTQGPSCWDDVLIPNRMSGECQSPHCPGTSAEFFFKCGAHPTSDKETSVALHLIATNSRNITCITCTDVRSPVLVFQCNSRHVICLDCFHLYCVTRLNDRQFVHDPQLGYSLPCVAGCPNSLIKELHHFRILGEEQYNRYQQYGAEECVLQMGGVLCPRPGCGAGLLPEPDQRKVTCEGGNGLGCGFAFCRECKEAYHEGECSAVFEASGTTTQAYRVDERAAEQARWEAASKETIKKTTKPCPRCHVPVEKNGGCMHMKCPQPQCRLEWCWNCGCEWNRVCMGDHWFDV

## Parkin (from UniProt O60260)
  Kd: 20 nM
